{"source": "patent US8956612B2", "about": "“Peptide associated with rheumatic fever (PARF) and its use as a diagnostic marker” (Helmholtz-Zentrum für Infektionsforschung GmbH, priority 2006, dated 2015)", "molecules": {"B1": {"name": "FOG1-A: recombinant protein, the first 134 amino acids of the mature FOG protein (protein, listed as Streptococcus sp.)", "chain": "DRWKAQTEEARTDKLIAGFANLDADVTNLGKMMDELQKLKDFSKQNNSIGEYARYLQKLNDQFQEYYEQVVGDDSRRVLAKELAKNTELNEKLSELSTTSQALAKELQEQKENYDLVK"}}, "key": {"collagen IV [1]": {"target": "T1, collagen IV (Homo sapiens, UniProt P02462+P08572)", "T1 construct": "purchased Sigma; host or cells: human placenta (tissue-derived)", "T1 sequence (P02462 173-1669)": "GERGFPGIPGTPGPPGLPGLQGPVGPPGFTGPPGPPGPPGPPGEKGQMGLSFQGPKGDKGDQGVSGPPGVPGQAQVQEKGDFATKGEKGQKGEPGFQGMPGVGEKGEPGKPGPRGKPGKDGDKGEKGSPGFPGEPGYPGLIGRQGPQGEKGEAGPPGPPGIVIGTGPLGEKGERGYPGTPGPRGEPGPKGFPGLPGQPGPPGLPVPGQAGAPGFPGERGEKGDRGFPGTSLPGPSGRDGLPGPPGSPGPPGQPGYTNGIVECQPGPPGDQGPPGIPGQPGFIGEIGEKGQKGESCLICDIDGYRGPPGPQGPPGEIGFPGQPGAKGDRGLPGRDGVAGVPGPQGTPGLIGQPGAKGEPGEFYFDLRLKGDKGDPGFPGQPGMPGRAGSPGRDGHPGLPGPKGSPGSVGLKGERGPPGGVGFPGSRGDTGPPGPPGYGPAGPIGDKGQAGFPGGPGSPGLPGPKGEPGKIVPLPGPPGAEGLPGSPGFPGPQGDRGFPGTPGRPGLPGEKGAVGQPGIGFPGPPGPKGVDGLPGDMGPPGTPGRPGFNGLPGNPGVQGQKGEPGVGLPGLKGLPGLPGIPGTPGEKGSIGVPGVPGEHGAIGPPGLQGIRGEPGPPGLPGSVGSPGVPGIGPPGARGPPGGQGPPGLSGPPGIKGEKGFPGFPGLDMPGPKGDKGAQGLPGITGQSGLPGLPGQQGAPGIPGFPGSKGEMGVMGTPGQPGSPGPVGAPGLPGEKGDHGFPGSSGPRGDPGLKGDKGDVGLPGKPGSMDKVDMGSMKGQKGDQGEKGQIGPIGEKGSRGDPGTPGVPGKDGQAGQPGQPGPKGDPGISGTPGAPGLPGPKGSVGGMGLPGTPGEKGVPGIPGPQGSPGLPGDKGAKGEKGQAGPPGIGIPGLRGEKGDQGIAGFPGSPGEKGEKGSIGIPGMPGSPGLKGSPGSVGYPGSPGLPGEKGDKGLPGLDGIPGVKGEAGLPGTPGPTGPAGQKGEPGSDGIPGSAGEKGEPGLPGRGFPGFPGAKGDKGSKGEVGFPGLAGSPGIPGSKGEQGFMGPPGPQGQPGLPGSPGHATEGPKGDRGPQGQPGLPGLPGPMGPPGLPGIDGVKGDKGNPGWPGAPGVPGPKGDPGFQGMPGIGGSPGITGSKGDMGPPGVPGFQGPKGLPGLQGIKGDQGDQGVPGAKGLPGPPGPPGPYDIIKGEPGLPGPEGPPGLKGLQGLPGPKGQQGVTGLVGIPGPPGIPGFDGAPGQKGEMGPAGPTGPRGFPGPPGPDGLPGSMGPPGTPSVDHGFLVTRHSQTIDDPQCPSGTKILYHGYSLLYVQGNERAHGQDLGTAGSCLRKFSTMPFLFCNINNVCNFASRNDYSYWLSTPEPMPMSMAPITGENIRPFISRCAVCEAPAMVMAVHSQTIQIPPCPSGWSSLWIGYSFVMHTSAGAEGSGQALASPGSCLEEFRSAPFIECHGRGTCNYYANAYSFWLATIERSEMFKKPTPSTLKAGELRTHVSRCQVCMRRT", "T1 sequence (P08572 184-1712)": "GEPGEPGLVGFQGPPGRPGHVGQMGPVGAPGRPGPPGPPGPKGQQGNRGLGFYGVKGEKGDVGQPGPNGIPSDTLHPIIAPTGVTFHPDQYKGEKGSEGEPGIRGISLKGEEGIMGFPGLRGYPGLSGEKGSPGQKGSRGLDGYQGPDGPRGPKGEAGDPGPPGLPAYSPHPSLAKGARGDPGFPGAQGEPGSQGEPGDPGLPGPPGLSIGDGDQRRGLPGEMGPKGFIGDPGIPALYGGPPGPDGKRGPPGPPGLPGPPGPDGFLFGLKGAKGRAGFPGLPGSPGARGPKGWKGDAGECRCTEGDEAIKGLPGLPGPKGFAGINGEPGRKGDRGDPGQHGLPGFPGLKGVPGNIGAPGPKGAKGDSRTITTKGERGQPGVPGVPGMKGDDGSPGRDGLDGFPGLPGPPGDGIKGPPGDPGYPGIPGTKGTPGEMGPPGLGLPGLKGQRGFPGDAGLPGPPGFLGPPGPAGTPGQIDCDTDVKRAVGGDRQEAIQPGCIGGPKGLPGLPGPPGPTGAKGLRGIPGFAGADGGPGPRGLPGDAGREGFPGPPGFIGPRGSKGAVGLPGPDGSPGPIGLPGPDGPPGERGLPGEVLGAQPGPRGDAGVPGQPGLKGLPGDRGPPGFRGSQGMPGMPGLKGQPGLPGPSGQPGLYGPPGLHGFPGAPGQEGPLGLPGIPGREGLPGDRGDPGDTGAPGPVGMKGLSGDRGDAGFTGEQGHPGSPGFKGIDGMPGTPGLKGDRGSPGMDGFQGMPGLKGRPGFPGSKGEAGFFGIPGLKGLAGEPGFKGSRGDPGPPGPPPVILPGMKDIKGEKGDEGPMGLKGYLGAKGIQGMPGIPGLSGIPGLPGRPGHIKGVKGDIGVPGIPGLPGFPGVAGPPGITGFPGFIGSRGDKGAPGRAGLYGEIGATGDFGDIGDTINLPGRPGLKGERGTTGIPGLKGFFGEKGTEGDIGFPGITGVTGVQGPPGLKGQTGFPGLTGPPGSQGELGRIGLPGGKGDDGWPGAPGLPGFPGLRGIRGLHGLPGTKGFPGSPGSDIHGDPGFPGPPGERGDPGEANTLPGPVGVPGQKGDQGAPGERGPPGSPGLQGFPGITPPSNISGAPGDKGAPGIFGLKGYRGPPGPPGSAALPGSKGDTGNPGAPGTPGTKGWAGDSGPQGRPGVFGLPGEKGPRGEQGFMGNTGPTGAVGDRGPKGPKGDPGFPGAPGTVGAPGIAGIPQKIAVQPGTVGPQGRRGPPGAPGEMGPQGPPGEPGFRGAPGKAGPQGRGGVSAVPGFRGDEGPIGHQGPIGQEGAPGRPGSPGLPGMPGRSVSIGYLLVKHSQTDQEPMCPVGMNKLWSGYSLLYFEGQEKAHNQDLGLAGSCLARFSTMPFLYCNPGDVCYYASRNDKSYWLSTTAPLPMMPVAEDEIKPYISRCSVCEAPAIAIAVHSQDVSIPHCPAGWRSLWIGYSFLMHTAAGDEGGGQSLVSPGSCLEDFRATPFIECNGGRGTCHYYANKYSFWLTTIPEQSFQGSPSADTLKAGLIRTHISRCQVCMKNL", "test": "Surface plasmon resonance, FOG fragments on immobilized collagen IV", "type": "binding", "conditions": "SPR; 12.5, 25, 50, 100 μg/ml", "experimental": "Site directed mutagenesis was performed on the plasmid pGEX-6P-1-FOGfl that coded for the GST-FOGfl fusion protein. E. coli clones containing the plasmids with the desired substitutions were generated using the GeneTailor™ Site Directed Mutagenesis System (Invitrogen) following the manufacturers recommendations. The tagged proteins from E. coli lysates were bound to glutathione sepharose 4B (GE Healthcare) and eluted with 10 mM reduced L-glutathione (Sigma) in 50 mM TrisHCl (pH=8.0) after washing the matrix with PBS. Alternatively, for SPR measurements of FOG1-B and FOG1-A the GST-tag was removed by digesting the proteins with PreScission™ protease (GE Healthcare) while bound to the affinity matrix, which eluted the untagged FOG proteins.\nProtein interactions were studied in a BIAcore 2000 system (BIAcore AB) using 10 mM HEPES, 100 mM NaCl, pH=7.4 as running buffer. A CM5 sensor chip was activated by a 4 min injection of 0.05M N-hydroxysuccinimid, 0.2 M N-ethyl-N-(3-dimethylaminopropyl)-carbodiimide hydrochloride in water. Collagen IV from human placenta (Sigma, 1 mg/ml in 0.1M NaAc) was diluted 1:25 in 10 mM NaAc (pH=5.2). Immediate injection of 3 μl at a flow rate of 5 μl/min lead to immobilization of 400 to 550 response units (RU) of collagen IV. Residual reactive groups were inactivated by 6 min injection of 1 M ethanolamine, 0.1 M NaHCO3, 0.5 M NaCl, 5 mM EDTA, pH=8.0. […]"}, "collagen IV [2]": {"system": "collagen IV", "test": "Immunization of mice, anti-collagen IV antibody titer by ELISA", "type": "in vivo, BALB/c mice", "conditions": "sera of immunized mice compared to the buffer control", "experimental": "Pathogen free 8 week old female BALB/c mice were immunized intra-peritoneally with an emulsion of 25-30 μg recombinant purified protein in 50 μl PBS and 50 μl Freund's incomplete adjuvant per dose at day 1, 7 and 14. Control mice were injected with 50 μl PBS and 50 μl Freund's incomplete adjuvant per dose. At day 21, serum samples of each group were collected and tested in ELISA. To absorb FOG reactive antibodies, 10 μl serum pool was diluted 1:50 in PBS, and incubated for 1 h with 1 mg GST-FOGfl protein immobilized on glutathione sepharose 4B. Antibodies that bound to the affinity matrix were removed by centrifugation. The supernatant was subjected to ELISA analysis.\nTo determine anti-collagen CIV antibody titers, 96 well plates (Greiner, Frickenhausen, Germany) were coated over night at 4° C. with anti-human collagen IV rabbit polyclonal antibody (Progen, Heidelberg, Germany) diluted 1:100 in 0.1 M NaHCO3 (pH=9.6), blocked with 2% bovine serum albumin (BSA) in PBST and incubated with collagen IV (2 μg/ml in PBS) for 1 h at 37° C. […] After washing, bound antibodies were detected using suitable horseradish peroxidase coupled secondary anti-serum (goat anti-mouse IgG,M, Jackson Laboratories; rabbit anti-human IgG, A, M, Sigma-Aldrich) and 2,2-azino-di-[3-ethylbenzthiazoline sulfonate]diammonium salt (ABTS tablets, Boehringer, Mannheim, Germany) as substrate. […]"}}}
{"molecule": "B1", "values": [{"measurement": "interaction with immobilized collagen IV", "setting": "collagen IV [1]", "result": "concentration dependent interaction"}, {"measurement": "titers of anti-collagen antibodies in ELISA", "setting": "collagen IV [2]", "result": "Substantially higher titers"}]}
